Target: T1, Nox1 (UniProt Q9Y5S8 1-564, limits assumed)
T1 sequence (looked up): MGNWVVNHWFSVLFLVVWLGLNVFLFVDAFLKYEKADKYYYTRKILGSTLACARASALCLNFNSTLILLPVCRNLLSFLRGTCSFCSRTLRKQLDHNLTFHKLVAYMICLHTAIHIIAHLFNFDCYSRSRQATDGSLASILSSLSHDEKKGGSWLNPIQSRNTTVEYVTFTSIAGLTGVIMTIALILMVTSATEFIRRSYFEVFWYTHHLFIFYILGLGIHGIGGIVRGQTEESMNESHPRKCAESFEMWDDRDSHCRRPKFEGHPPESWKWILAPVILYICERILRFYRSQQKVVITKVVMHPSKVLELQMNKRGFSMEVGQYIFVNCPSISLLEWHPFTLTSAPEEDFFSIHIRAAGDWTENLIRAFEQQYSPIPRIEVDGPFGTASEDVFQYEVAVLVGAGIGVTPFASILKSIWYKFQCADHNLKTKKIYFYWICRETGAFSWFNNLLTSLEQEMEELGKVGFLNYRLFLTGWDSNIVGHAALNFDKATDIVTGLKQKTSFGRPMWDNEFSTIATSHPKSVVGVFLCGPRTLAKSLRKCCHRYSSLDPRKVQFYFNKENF
Experiment: cell-based or functional assay

inhibition of O2^- production by Nox1-transfected COS22 cells (SOD-inhibitable cytochrome c reduction), IC50: 19 nM
Binder: H-EPVDALGKAKV-NH2 [NoxA1ds]

— US20140357549A1 (UNIVERSITY OF PITTSBURGH OF THE COMMONWEALTH SYSTEM OF …, published 2014)
